This is an account of results in the supplement of paper PMC12042874.

± gives the uncertainty stated by the source.

A short description of the data set: amyloid nucleation score (Sup35N fusion, yeast selection) (log enrichment); library NNK2; higher = more nucleation; inactive = no reads after selection. The method in brief:
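Sup35N fusions to peptides of 20 random codons were expressed in psi-negative yeast, induced 24 hours with 100 μM copper sulfate, and grown 7 days at 30°C on medium lacking adenine and uracil. Input and output plasmid inserts were sequenced by Illumina. The nucleation score is the DiMSum log enrichment of output over input reads, centred on the mode score of non-aggregating sequences. Sequences with under 100 input reads were excluded.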

As for SQISYEWDATIHQWLCKWFW, the amyloid nucleation score is 8.355 ± 0.031.

The substance CAEAFVMGFSSKGGVINRAL registered an amyloid nucleation score of 2.1 ± 0.12.

As to SRGVS, the amyloid nucleation score is -0.433 ± 0.43.

As to FVDVKHDVVKAMRLWFR, the amyloid nucleation score was -0.632 ± 1.1.

For the substance IPLRHVLLVMQCRPAL, the amyloid nucleation score came to 0.915 ± 0.23.

As for QAWYRLVCIASYLFYEGFNV, the amyloid nucleation score came to 0.193 ± 0.13.

Consider QMQYFKATYSI, for which the amyloid nucleation score is -0.613 ± 0.44.

LQFLLLE gave an amyloid nucleation score of 3.38 ± 0.047.

In turn, WAGRDHFWNIIYLDLSFVGE displayed an amyloid nucleation score of 3.77 ± 0.12.

In the case of GVREYMH, the amyloid nucleation score was found to be 0.544 ± 0.28.

VHICRTNDG yielded an amyloid nucleation score of 0.632 ± 0.44.

LEDGRTSLGMTQRYSIRNIC gave an amyloid nucleation score of -1.11 ± 0.55.

SLLVDALR gave an amyloid nucleation score of 0.513 ± 0.39.

Substance EMLYTSFILSLWNNLDFILS registered an amyloid nucleation score of -0.452 ± 0.63.

With SSAWYFSLGTDIAFDAGYSA, the amyloid nucleation score is -0.108 ± 1.1.

KSCSMMFILWVTAGMDRWGH: the amyloid nucleation score worked out at 6.25 ± 0.09.

In turn, SLNVVMGAD showed an amyloid nucleation score of -1.15 ± 0.76.

The substance WWRNFD came in with an amyloid nucleation score of -0.526 ± 0.76.

Regarding FFFNVSLHVRNFLEEVSVAS, the amyloid nucleation score result is “inactive”.

Regarding YADCVYDREPYTV, the amyloid nucleation score entry is “inactive”.

CPIYDRTQGLIGLWCLCNEC displayed an amyloid nucleation score of -0.668 ± 0.34.

For the substance LHYTYVSDCVCRMDTLLFGL, the amyloid nucleation score was -0.278 ± 0.45.

Turning to SMRISHTGAQQDLDDCAMRK, the amyloid nucleation score worked out at 0.635 ± 0.65.

Take IKQSYTYNPK: the amyloid nucleation score is 1.87 ± 0.12.

Substance MRTIGGD showed an amyloid nucleation score of 0.348 ± 0.38.

Turning to CAGRFRCFLMSCIDCKLGVL, the amyloid nucleation score is -0.763 ± 1.

With CLITLLIMECKYAVDLWGSV, the amyloid nucleation score was 1.04 ± 0.34.

Substance MRWRMCIIFNLVISY yielded an amyloid nucleation score of 0.218 ± 1.1.

In turn, RPLASSWAQY came in with an amyloid nucleation score of 1.65 ± 0.21.

Regarding VSRDIIKKVSASNRSMVSDS, the amyloid nucleation score amounted to 0.163 ± 0.56.

LRPLIIPGSKRHCNTVL: the amyloid nucleation score is -0.005 ± 0.79.

With NPVRISL, the amyloid nucleation score amounted to 0.214 ± 0.28.

As to FRVRRGLASGR, the amyloid nucleation score came to 1.28 ± 0.3.

Turning to MGNLCCVPRYYMHQVEYPRF, the amyloid nucleation score result was “inactive”.

Substance AMPSNMLGTSGSYDAC had an amyloid nucleation score of 0.404 ± 0.66.

WAKSFHTALWASLMRGRKLH came in with an amyloid nucleation score of -0.44 ± 0.54.

In turn, WSTAFSKLNSSRKSD gave an amyloid nucleation score of -0.582 ± 0.76.

ITFRTYILPDSWIRPRTFEK had an amyloid nucleation score of 3.29 ± 0.054.

The substance QFVGFVRWFVWEWGLLVID registered an amyloid nucleation score of 0.706 ± 0.81.

The substance TEGRVDPLCDERAILMVFDV returned an amyloid nucleation score of 0.768 ± 0.5.

In turn, LWDLRSEYKFYINMDHFMTV returned an amyloid nucleation score of -1.4 ± 0.75.

For the substance SLTASCI, the amyloid nucleation score is -0.471 ± 0.76.

Turning to GRMWEMACFLATNMLGKSDS, the amyloid nucleation score is 0.959 ± 0.29.

With PCENLVCEII, the amyloid nucleation score entry is “inactive”.

Substance TDYHMFYRLDCLPLTTTCPV had an amyloid nucleation score of 4.88 ± 0.087.

For the substance PNSRGLSQVNLSFVENRRWS, the amyloid nucleation score came out at 3.84 ± 0.044.

Substance AREHPKY displayed an amyloid nucleation score of 0.645 ± 0.14.

In turn, RGWCFWASPGRR displayed an amyloid nucleation score of 0.2 ± 0.26.

SKIVYFSYYTQM registered an amyloid nucleation score of 6.775 ± 0.049.

Regarding GSEECTLTDCRGSRQDILKR, the amyloid nucleation score was determined as 0.078 ± 0.77.

Regarding DTAHTNISECRAMVRMYRSR, the amyloid nucleation score is -0.755 ± 1.1.

SFSRSSAYVVHVLGYLEFRT: the amyloid nucleation score is -0.004 ± 0.65.

For FNRGKVMCVAYNGCSRYLMD, the amyloid nucleation score is -1.64 ± 0.75.

IWLLHQCSLATLGFC returned an amyloid nucleation score of -1.25 ± 0.62.

As to CSSSNINRFS, the amyloid nucleation score was found to be 2.99 ± 0.12.

As for NLAFTNALVLLWNSVYLKDE, the amyloid nucleation score was 8.274 ± 0.058.

For KCYLVLRG, the amyloid nucleation score amounted to 3.08 ± 0.17.

For SLWNIVRCRVENDSSGTQGF, the amyloid nucleation score was -0.414 ± 0.5.

Turning to CVFISLNMNKIYMLDNSGQW, the amyloid nucleation score was determined as 8.445 ± 0.036.

The substance MRPMIFPCYAMSSVSMLTSR came in with an amyloid nucleation score of 0.72 ± 0.27.

Take AINLGSDYKWSGMAFVKG: the amyloid nucleation score came to 0.285 ± 1.

Turning to CCKMGRRDLRFLSDFVLCKL, the amyloid nucleation score entry was “inactive”.

With RFEMRSGLKDKLDKVGS, the amyloid nucleation score result is “inactive”.

In turn, FRRRRIFYYITEHVLLCMLK displayed an amyloid nucleation score of -0.5 ± 0.64.

The substance LLINLVPFWLILRHDYLIKF had an amyloid nucleation score of 0.959 ± 0.74.

In turn, AKKLMSWEAVVLWGASRCVT displayed an amyloid nucleation score of 1.08 ± 0.42.

Regarding KNSLKVLLNRRLRVCGSQLN, the amyloid nucleation score was -0.309 ± 0.45.

For the substance YLYKLFGDDFGDWFLICFFR, the amyloid nucleation score result is “inactive”.

Consider NTLDSGPNGGWLISTY, for which the amyloid nucleation score entry was “inactive”.

ICRLFVR registered an amyloid nucleation score of -0.454 ± 0.31.

As for SPLEKATRFPTWEQCTVASM, the amyloid nucleation score was 0.405 ± 0.23.

For LCQIANNSVGLRKDQEGLR, the amyloid nucleation score amounted to 0.375 ± 0.41.

SMMTVADP yielded an amyloid nucleation score of -0.529 ± 0.79.

For the substance FEYLYYIDIYLWYCEGRVAK, the amyloid nucleation score is -0.661 ± 0.54.

Substance GLSGMEGKLS came in with an amyloid nucleation score of -0.398 ± 0.63.

In turn, RTTGTLLMRAESALPGRVVN showed an amyloid nucleation score of 5.762 ± 0.055.

With NWSGMPLPFLTFRKRFVEV, the amyloid nucleation score is -0.998 ± 1.

The substance RQARSCIVGDGSWRGCLIKV gave an amyloid nucleation score of 1.11 ± 0.26.

As for YMMMIDL, the amyloid nucleation score was -1.26 ± 0.64.

For the substance NYCNDGVGCYS, the amyloid nucleation score was found to be 4.82 ± 0.067.

With ACCRTNFATLVLKEKMNLD, the amyloid nucleation score is 0.326 ± 0.3.

With VDFFCQPGTCVQEVEDLLVL, the amyloid nucleation score was -0.166 ± 0.35.

As to RITIAQHTDSKGDA, the amyloid nucleation score was -0.01 ± 0.61.

In the case of NASIQR, the amyloid nucleation score was 0.564 ± 0.36.

Take VGYFLSPMTVQLN: the amyloid nucleation score entry is “inactive”.

Consider PSYFRNRIRLSRVGTNGYTR, for which the amyloid nucleation score is -0.693 ± 1.1.

Consider RMDTGNLYVFLMKCFNMAYA, for which the amyloid nucleation score was determined as 5.2 ± 0.091.

AKCPIRNRSLSCIQWSGGAK returned an amyloid nucleation score of 0.398 ± 0.27.

Regarding ALGENAPILDRWLIGSLVFL, the amyloid nucleation score came out at 1.77 ± 0.39.

Substance VWRTGRGYGRMWFLHISSMY came in with an amyloid nucleation score of -0.207 ± 0.34.

Substance NSAIVLHTSYIHFVFYSVFY registered an amyloid nucleation score of -0.403 ± 0.63.

YVMTFYTFTTIGGPGPWYGL: the amyloid nucleation score entry is “inactive”.

As for CIKLRR, the amyloid nucleation score entry was “inactive”.

With SYRNLDKTIRSDKLQVNLGI, the amyloid nucleation score is -1.57 ± 1.1.

With DFVDGVPL, the amyloid nucleation score worked out at 0.415 ± 0.8.

In turn, LLFQVLPKMTSAPPSGWSTP yielded an amyloid nucleation score of 0.547 ± 0.81.

Consider CYHRKFVLLFFLSNR, for which the amyloid nucleation score result was “inactive”.

YKTIIRSVMSELSGSLRQSE registered an amyloid nucleation score of 1.26 ± 0.11.

As to WRSGGQPCVSGSWSVTNLCV, the amyloid nucleation score came to 3.1 ± 0.092.

QLNVIDIYTSGWISFP showed an amyloid nucleation score of -1.06 ± 0.26.

In turn, FSMVT returned an amyloid nucleation score of 0.057 ± 0.63.

Turning to GIYVEEWGHSVPALRWIDKS, the amyloid nucleation score turned out to be 0.309 ± 0.8.

Regarding CFLGLYGDIASIFNQ, the amyloid nucleation score was -0.889 ± 0.45.

Turning to DLQIFTLLFTR, the amyloid nucleation score entry is “inactive”.
